Measured values as given in publication PMC6007875 (Nature, 2018).
Substitutions are numbered along the chain they refer to. Names may count otherwise.

T1: shed extracellular domain of αKlotho (αKlotho^ecto) (human, UniProt Q9UEF7 34-981)
T1 sequence (looked up): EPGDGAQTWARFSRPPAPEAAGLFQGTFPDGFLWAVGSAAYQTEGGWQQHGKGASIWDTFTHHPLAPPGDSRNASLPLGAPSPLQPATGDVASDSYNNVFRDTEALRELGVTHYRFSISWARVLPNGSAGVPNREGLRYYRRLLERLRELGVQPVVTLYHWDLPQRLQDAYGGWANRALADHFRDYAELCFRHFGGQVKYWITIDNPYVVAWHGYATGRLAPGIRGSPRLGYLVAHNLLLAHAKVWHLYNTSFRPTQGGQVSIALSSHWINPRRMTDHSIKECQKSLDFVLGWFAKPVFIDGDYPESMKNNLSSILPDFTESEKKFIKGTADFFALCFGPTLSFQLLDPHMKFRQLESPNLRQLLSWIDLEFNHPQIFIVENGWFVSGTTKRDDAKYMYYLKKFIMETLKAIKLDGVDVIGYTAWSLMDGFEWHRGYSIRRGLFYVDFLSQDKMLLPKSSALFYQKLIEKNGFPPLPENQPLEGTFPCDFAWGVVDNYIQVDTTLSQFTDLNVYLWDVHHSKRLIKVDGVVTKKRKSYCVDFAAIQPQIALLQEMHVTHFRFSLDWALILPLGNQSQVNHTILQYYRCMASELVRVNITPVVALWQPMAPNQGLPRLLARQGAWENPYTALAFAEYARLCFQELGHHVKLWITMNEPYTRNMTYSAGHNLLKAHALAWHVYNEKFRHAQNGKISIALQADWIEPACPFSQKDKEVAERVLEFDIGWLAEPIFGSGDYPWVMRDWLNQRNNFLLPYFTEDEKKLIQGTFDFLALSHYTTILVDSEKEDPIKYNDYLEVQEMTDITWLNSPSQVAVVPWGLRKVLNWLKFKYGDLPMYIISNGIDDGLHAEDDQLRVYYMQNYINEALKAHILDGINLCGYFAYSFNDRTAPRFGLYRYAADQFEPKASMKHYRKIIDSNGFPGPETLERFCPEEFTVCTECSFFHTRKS

B1: FGFR1c^ΔHBS (K160Q/K163Q), ecto (domain or fragment, human)
chain: DNTKPNRMPVAPYWTSPEQMEQKLHAVPAAKTVKFKCPSSGTPNPTLRWLKNGKEFKPDHRIGGYKVRYATWSIIMDSVVPSDKGNYTCIVENEYGSINHTYQLDVVERSPHRPILQAGLPANKTVALGSNVEFMCKVYSDPQPHIQWLKHIEVNGSKIGPDNLPYVQILKTAGVNTTDKEMEVLHLRNVSFEDAGEYTCLAGNSIGLSHHSAWLTVLEALEER
B2: FGFR1c^ΔRRBS (A171D), ecto (domain or fragment, human)
chain: B1 chain with Q19K, Q22K, A30D
B3: FGFR1c^ΔHBS’ (K207Q/R209Q), ecto (domain or fragment, human)
chain: B1 chain with Q19K, Q22K, K66Q, R68Q
B4: FGFR1c^ΔSLBS’ (V221D), ecto (domain or fragment, human)
chain: B1 chain with Q19K, Q22K, V80D
B5: FGFR1c^ΔSLBS (I203E), ecto (domain or fragment, human)
chain: B1 chain with Q19K, Q22K, I62E
B6: fibroblast growth factor 23 (FGF23) (ligand, human, UniProt Q9GZV9 25-251, looked up)
chain: YPNASPLLGSSWGGLIHLYTATARNSYHLQIHKNGHVDGAPHQTIYSALMIRSEDAGFVVITGVMSRRYLCMDFRGNIFGSHYFDPENCRFQHQTLENGYDVYHSPQYHFLVSLGRAKRAFLPGMNPPPYSQFLSRRNEIPLIHFNTPIPRRHTRSAEDDSERDPLNVLKPRARMTPAPASCSQELPSAEDNSPMASDPLGVVRGGRVNTHAGGTGPEGCRPFAKFI
B7: FGFR1c ligand-binding domain (FGFR1c^ecto) (domain or fragment, human)
chain: B1 chain with Q19K, Q22K
B8: FGF23^ΔHBS (R140A/R143A) (ligand, human, UniProt Q9GZV9 25-251, looked up)
chain: B6 chain with R116A, R119A
B9: FGF23^ΔSRBS (M149A/N150A/P151A) (ligand, human, UniProt Q9GZV9 25-251, looked up)
chain: B6 chain with M125A, N126A, P127A

Experiments:
FGFR1c (Homo sapiens) = FGFR1c (Homo sapiens) (UniProt P11362); conditions: cited from earlier work
FGFR1c (Homo sapiens), sequence (P11362 22-376): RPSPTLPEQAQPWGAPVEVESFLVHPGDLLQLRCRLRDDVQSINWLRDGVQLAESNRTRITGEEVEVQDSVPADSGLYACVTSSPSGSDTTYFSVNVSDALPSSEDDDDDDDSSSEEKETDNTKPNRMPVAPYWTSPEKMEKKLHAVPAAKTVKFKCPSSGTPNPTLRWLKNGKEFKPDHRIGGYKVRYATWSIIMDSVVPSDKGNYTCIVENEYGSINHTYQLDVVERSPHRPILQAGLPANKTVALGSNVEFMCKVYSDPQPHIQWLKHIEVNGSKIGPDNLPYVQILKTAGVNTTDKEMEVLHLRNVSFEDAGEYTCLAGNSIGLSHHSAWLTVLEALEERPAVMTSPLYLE

[1] = target: T1, shed extracellular domain of αKlotho …; assay: SEC-MALS
[2] = target: B7; assay: SEC-MALS
[3] = target: B9; assay: SEC-MALS
FGF23^ΔHBS (R140A/R143A) = target: B8; assay: SEC-MALS

binding result [1]	Molecule	further results
	αKlotho (from UniProt Q9UEF7)	Kd (FGFR1c (Homo sapiens)): 72 nM
binds	B1	
binds	B2	
binds	B3	
binds	B4	
binds	B5	
	B6	stoichiometry N [1]: 1; stoichiometry N [2]: 1
	B7	binding result [3]: binds; binding result (FGF23^ΔHBS (R140A/R143A)): binds; stoichiometry N [1]: 1
binds	B8	
binds	B9	
